This assay addresses linear triubiquitin (UniProt P0CG48). Briefly: BLI. (In general: BLI is a label-free optical method that tracks binding on a fibre tip over time.)

linear triubiquitin, sequence (P0CG48 1-228): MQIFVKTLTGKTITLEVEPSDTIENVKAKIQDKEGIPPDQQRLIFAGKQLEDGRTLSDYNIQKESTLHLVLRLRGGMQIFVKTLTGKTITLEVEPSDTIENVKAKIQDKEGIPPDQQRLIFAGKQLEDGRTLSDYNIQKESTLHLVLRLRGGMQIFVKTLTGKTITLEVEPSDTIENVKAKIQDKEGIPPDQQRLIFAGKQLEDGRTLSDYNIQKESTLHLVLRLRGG

On to PKQRCRAPACDHFGNAKCNGYCNECFQFKQMYG (domain or fragment, biotin (singly biotinylated)) [singly biotinylated A20 zinc finger 7 (ZnF7: P758-G790)], for which the binding result is on record as “binds”.

The record behind these values is publication PMC9680732 (Biophysical Reports, 2021).
